Reference: US20050282743A1, “Molecular interactions in cells” (Arbor Vita Corporation, priority 2001, published 2005)
Ends that are not written are not given here. Peptide text beside a SMILES is read from it. * marks the point of attachment. Biotin = O=C1N[C@H]2[C@H](CS[C@H]2CCCCC(=O)*)N1

molecular target: T1, PDZ protein (GST-PDZ fusion) (Homo sapiens, UniProt Q8TEW0); assay: G' assay (10 uM PL peptide), results of TABLE 7 and TABLE 12; format: binding; conditions: PDZ PAR3, PDZ Domain 3
T1 construct: made in house; host or cells: E. coli (DH5alpha, BL21 or JM109)
Procedure, shortened: (§1)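 Biotinylated PL peptides at 10 uM (vs 20 uM in G^0 assay) bound to GST-PDZ fusions; PDZ protein at 5 ug/ml unless another concentration listed. Bound peptide read as A450 nm, classified 0–5 (0 = A450 0; 5 = A450 >4 repeated).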

T1 sequence (Q8TEW0 whole entry, the tested form may be a part): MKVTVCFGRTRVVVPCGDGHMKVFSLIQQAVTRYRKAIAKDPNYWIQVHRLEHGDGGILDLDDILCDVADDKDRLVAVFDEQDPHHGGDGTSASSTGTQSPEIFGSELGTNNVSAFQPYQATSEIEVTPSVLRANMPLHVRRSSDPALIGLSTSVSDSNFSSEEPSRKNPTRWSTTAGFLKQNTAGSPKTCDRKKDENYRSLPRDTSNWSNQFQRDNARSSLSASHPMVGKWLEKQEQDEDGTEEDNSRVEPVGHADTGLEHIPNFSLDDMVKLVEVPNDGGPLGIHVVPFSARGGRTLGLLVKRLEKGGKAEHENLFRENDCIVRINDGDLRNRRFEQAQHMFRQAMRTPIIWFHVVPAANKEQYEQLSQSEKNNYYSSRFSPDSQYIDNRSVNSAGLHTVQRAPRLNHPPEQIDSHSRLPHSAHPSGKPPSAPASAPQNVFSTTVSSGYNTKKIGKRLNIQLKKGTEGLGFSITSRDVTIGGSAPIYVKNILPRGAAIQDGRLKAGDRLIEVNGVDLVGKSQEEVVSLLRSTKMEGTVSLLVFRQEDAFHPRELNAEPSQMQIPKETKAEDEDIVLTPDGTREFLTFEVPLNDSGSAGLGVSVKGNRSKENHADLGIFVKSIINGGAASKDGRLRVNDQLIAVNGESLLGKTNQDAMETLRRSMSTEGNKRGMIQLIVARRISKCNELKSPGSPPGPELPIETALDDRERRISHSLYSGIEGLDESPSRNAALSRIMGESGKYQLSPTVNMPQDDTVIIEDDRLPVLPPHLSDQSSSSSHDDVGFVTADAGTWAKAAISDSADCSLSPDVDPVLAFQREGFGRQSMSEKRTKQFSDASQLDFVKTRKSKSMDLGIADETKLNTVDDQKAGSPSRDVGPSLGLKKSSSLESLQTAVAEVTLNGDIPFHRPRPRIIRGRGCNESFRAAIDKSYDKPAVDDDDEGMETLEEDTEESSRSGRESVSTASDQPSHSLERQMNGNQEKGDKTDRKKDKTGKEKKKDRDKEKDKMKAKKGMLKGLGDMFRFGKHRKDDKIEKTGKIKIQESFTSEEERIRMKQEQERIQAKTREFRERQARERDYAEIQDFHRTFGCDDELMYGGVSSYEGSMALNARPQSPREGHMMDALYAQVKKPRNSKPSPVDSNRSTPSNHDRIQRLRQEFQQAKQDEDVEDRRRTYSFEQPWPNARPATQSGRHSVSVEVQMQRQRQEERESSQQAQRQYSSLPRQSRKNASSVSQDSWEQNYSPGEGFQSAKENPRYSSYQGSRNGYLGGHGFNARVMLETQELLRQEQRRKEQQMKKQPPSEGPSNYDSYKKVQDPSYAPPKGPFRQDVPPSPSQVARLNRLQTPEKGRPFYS

Row | Compound | Classification
1 | CC[C@H](C)[C@H](NC(=O)[C@H](Cc1ccc(O)cc1)NC(=O)[C@H](CC(C)C)NC(=O)[C@H](CCC(N)=O)NC(=O)[C@H](Cc1c[nH]cn1)NC(=O)[C@H](CO)NC(=O)[C@H](C)NC(=O)[C@H](CC(C)C)NC(=O)[C@@H](NC(=O)[C@H](CC(=O)O)NC(=O)[C@H](CCSC)NC(=O)[C@H](Cc1ccccc1)NC(=O)[C@@H]1CCCN1C(=O)[C@H](CCCNC(=N)N)NC(=O)[C@@H](NC(=O)[C@H](CC(C)C)NC(=O)[C@H](CC(N)=O)NC(=O)[C@H](CC(=O)O)NC(=O)[C@@H](NC(=O)[C@H](CO)NC(=O)CCCC[C@@H]1SC[C@@H]2NC(=O)N[C@@H]21)[C@@H](C)O)C(C)C)[C@@H](C)O)C(=O)O [presenilin-2] (Biotin-STDNLVRPFMDTLASHQLYI-OH; C-terminus assumed) | 5 (A450 nm of 4 more than 2× repeated)
2 | KTMPAATYRLLTGQEQPVYL (Biotin-KTMPAATYRLLTGQEQPVYL) [MINT-3] | 1 (A450 nm 0-1)
3 | ELLQFCRTPNPALKNGQYWV (Biotin-ELLQFCRTPNPALKNGQYWV) | 3 (A450 nm 2-3)
4 | VHDAESSDEDGYDWGPATDL (Biotin-VHDAESSDEDGYDWGPATDL) [zona occludens 3 (ZO-3)] | 1 (A450 nm 0-1)
5 | A2AA_HUMAN (modified) (Biotin-HDFRRAFKKILARGDRKRIV; not fully specified) | 2 (A450 nm 1-2)
6 | CC[C@H](C)[C@H](NC(=O)[C@H](Cc1ccc(O)cc1)NC(=O)[C@@H](NC(=O)[C@@H]1CCCN1C(=O)[C@H](CCC(N)=O)NC(=O)[C@H](CCC(=O)O)NC(=O)[C@H](CCC(N)=O)NC(=O)[C@H](C)NC(=O)[C@@H](NC(=O)[C@H](CC(C)C)NC(=O)[C@H](CC(C)C)NC(=O)[C@H](CCCNC(=N)N)NC(=O)[C@H](Cc1ccc(O)cc1)NC(=O)[C@H](CCSC)NC(=O)[C@H](C)NC(=O)[C@H](C)NC(=O)[C@@H]1CCCN1C(=O)[C@H](CCSC)NC(=O)[C@@H](NC(=O)[C@H](CCCCN)NC(=O)CCCC[C@@H]1SC[C@@H]2NC(=O)N[C@@H]21)[C@@H](C)O)[C@@H](C)O)C(C)C)C(=O)O [MINT-1] (Biotin-KTMPAAMYRLLTAQEQPVYI-OH; C-terminus assumed) | 5 (A450 nm of 4 more than 2× repeated)
7 | KTMPAAMFRLLTGQETPLYI (Biotin-KTMPAAMFRLLTGQETPLYI) [MINT-2] | 5 (A450 nm of 4 more than 2× repeated)
8 | CC[C@H](C)[C@H](NC(=O)[C@H](C)NC(=O)[C@H](CC(C)C)NC(=O)[C@H](Cc1c[nH]c2ccccc12)NC(=O)[C@H](Cc1c[nH]cn1)NC(=O)[C@H](CCC(N)=O)NC(=O)[C@H](CC(C)C)NC(=O)[C@H](CCC(N)=O)NC(=O)[C@H](Cc1ccccc1)NC(=O)[C@H](CCC(N)=O)NC(=O)[C@H](CCCNC(=N)N)NC(=O)[C@@H](NC(=O)[C@H](CC(=O)O)NC(=O)[C@H](CCCNC(=N)N)NC(=O)[C@H](CCC(N)=O)NC(=O)[C@H](C)NC(=O)[C@@H](NC(=O)[C@H](CC(C)C)NC(=O)[C@H](Cc1c[nH]cn1)NC(=O)[C@H](Cc1c[nH]cn1)NC(=O)CCCC[C@@H]1SC[C@@H]2NC(=O)N[C@@H]21)C(C)C)[C@@H](C)CC)C(=O)O [noradrenaline transporter] (Biotin-HHLVAQRDIRQFQLQHWLAI-OH; C-terminus assumed) | 4 (A450 nm 3-4)
9 | PYSELNYETSHYPASPDSWV (Biotin-PYSELNYETSHYPASPDSWV) [catenin - delta 2] | 1 (A450 nm 0-1)

molecular target: T2, PDZ protein (GST-PDZ fusion) (Homo sapiens, UniProt Q9NY99); assay: as above; format: binding; conditions: PDZ Syntrophin gamma-2, PDZ Domain 1
T2 construct: made in house; host or cells: E. coli (DH5alpha, BL21 or JM109)
T2 sequence (Q9NY99 1-539): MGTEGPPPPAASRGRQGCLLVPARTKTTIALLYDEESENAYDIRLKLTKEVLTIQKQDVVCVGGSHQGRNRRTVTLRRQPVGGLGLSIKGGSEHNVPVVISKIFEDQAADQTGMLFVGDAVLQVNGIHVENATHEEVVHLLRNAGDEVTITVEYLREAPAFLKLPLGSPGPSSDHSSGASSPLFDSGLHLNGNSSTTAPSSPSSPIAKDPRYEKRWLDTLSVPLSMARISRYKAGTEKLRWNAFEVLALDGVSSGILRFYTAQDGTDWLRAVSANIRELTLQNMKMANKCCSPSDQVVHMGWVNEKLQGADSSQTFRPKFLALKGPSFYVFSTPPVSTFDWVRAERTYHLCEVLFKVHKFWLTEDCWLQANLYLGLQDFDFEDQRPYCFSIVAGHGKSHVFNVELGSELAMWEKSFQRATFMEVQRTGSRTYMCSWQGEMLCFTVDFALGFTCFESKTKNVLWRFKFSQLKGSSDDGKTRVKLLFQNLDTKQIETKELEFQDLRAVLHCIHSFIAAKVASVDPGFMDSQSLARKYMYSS
Procedure, shortened: as §1

Row | Compound | Classification
10 | TQGFPGPATWRRISSLESEV | 2 (A450 nm 1-2)
11 | CC(C)C[C@H](NC(=O)[C@H](C)NC(=O)[C@H](CO)NC(=O)CNC(=O)[C@@H](NC(=O)CCCC[C@@H]1SC[C@@H]2NC(=O)N[C@@H]21)[C@@H](C)O)C(=O)N[C@@H](CCC(N)=O)C(=O)N[C@@H](C)C(=O)N[C@@H](Cc1c[nH]c2ccccc12)C(=O)N[C@@H](CCCNC(=N)N)C(=O)N[C@@H](Cc1c[nH]cn1)C(=O)N[C@H](C(=O)N[C@@H](CO)C(=O)N[C@@H](CCCNC(=N)N)C(=O)N[C@@H](CCC(N)=O)C(=O)N[C@@H](C)C(=O)N[C@H](C(=O)N[C@@H](CCC(=O)O)C(=O)N[C@@H](CO)C(=O)N[C@H](C(=O)N[C@H](C(=O)O)C(C)C)[C@@H](C)O)[C@@H](C)O)[C@@H](C)O [HPV E6 #66 (modified)] (Biotin-TGSALQAWRHTSRQATESTV-OH; C-terminus assumed) | 1 (A450 nm 0-1)

molecular target: T3, PDZ protein (GST-PDZ fusion) (Homo sapiens, UniProt Q9UDY2); assay: as above; format: binding; conditions: PDZ ZO-2, PDZ Domain 1
T3 construct: made in house; host or cells: E. coli (DH5alpha, BL21 or JM109)
T3 sequence (Q9UDY2 1-1190): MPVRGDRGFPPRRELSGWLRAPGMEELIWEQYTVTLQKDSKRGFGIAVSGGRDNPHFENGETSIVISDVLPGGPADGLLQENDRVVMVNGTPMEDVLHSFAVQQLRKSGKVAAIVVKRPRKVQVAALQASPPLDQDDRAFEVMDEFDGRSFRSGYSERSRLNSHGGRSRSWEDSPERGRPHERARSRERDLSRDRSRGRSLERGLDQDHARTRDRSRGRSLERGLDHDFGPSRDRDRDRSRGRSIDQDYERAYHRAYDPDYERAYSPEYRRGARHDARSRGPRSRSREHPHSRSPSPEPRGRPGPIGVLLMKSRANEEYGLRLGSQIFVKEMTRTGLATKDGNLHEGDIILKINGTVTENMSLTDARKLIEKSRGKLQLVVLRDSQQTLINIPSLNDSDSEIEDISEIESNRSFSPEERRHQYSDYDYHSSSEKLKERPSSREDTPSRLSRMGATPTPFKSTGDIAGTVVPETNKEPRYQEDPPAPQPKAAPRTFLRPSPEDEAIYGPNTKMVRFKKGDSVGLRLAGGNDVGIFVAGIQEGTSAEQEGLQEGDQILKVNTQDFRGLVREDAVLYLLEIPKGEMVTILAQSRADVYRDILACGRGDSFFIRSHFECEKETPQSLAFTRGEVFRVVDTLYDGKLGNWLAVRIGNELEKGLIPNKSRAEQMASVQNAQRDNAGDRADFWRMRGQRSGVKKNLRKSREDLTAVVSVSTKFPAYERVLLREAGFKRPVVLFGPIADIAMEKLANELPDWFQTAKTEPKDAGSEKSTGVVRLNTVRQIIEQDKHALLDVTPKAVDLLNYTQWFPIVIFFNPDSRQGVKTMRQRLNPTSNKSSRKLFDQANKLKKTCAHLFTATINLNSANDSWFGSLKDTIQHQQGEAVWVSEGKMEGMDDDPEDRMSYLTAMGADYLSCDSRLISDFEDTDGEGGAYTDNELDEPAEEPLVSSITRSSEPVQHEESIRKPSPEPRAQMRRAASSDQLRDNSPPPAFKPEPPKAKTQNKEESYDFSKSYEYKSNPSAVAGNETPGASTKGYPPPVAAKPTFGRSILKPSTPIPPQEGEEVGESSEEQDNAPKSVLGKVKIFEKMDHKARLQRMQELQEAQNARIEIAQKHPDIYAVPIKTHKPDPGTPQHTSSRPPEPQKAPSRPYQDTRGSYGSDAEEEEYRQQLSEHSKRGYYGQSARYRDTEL
Procedure, shortened: as §1

Row | Compound | Classification
12 | CC[C@H](C)[C@H](NC(=O)[C@H](CC(=O)O)NC(=O)[C@H](CCC(=O)O)NC(=O)[C@H](CCCNC(=N)N)NC(=O)[C@@H](NC(=O)CCCC[C@@H]1SC[C@@H]2NC(=O)N[C@@H]21)[C@@H](C)O)C(=O)N[C@@H](Cc1ccc(O)cc1)C(=O)N[C@H](C(=O)N[C@@H](CC(N)=O)C(=O)N[C@@H](Cc1ccc(O)cc1)C(=O)N1CCC[C@H]1C(=O)N[C@H](C(=O)N[C@@H](Cc1ccccc1)C(=O)N[C@@H](CO)C(=O)N[C@@H](CCCNC(=N)N)C(=O)N[C@@H](CCCNC(=N)N)C(=O)N1CCC[C@H]1C(=O)N[C@@H](CCCCN)C(=O)N[C@H](C(=O)N[C@@H](CCCNC(=N)N)C(=O)N[C@H](C(=O)O)C(C)C)[C@@H](C)O)[C@@H](C)O)C(C)C [DNAM-1] (Biotin-TREDIYVNYPTFSRRPKTRV-OH; C-terminus assumed) | 3 (A450 nm 2-3)
13 | ELLQFCRTPNPALKNGQYWV (Biotin-ELLQFCRTPNPALKNGQYWV) | 5 (A450 nm of 4 more than 2× repeated)
14 | CC(C)C[C@H](NC(=O)[C@H](CCCNC(=N)N)NC(=O)CNC(=O)CNC(=O)[C@H](CCCNC(=N)N)NC(=O)[C@H](C)NC(=O)[C@@H]1CCCN1C(=O)[C@H](CCCNC(=N)N)NC(=O)CNC(=O)CNC(=O)[C@@H](NC(=O)[C@H](C)NC(=O)CCCC[C@@H]1SC[C@@H]2NC(=O)N[C@@H]21)C(C)C)C(=O)N[C@@H](CCC(N)=O)C(=O)NCC(=O)N[C@@H](CCCNC(=N)N)C(=O)N[C@@H](CCCNC(=N)N)C(=O)N[C@@H](CCC(N)=O)C(=O)N[C@H](C(=O)N[C@@H](CCC(N)=O)C(=O)N[C@H](C(=O)O)C(C)C)[C@@H](C)O [HPV E6 58 (modified)] (Biotin-AVGGRPARGGRLQGRRQTQV-OH; C-terminus assumed) | 3 (A450 nm 2-3)
15 | GPVPGEPAKPKTSAHHATFV (Biotin-GPVPGEPAKPKTSAHHATFV) | 1 (A450 nm 0-1)

same assay, conditions: PDZ ZO-2, PDZ Domain 1; PL peptide 10 uM

Row | Compound | Classification
16 | CC[C@H](C)[C@H](NC(=O)[C@H](CCCCN)NC(=O)[C@@H](NC(=O)[C@H](CO)NC(=O)[C@@H]1CCCN1C(=O)[C@H](Cc1ccccc1)NC(=O)[C@@H](NC(=O)[C@@H](NC(=O)[C@H](CCCNC(=N)N)NC(=O)[C@H](CCC(=O)O)NC(=O)[C@H](CC(C)C)NC(=O)[C@H](CC(C)C)NC(=O)[C@H](CC(C)C)NC(=O)[C@@H](NC(=O)CNC(=O)[C@@H](NC(=O)CCCC[C@@H]1SC[C@@H]2NC(=O)N[C@@H]21)C(C)C)[C@@H](C)O)C(C)C)[C@@H](C)CC)C(C)C)C(=O)N[C@@H](C)C(=O)N[C@H](C(=O)N[C@@H](CC(C)C)C(=O)N[C@H](C(=O)O)C(C)C)[C@@H](C)O [Adenovirus E4 Type9] | 3 (A450 nm 2-3)

same assay, conditions: PDZ ZO-2, PDZ Domain 2

Row | Compound | Classification
17 | ELLQFCRTPNPALKNGQYWV (Biotin-ELLQFCRTPNPALKNGQYWV) | 1 (A450 nm 0-1)
18 | A2AA_HUMAN (modified) (Biotin-HDFRRAFKKILARGDRKRIV; not fully specified) | 2 (A450 nm 1-2)
